Experiment [1] concerns the target IL2Rβ and common γ chain on 32Dβ cells. Description: cell-based or functional assay.
The target of another experiment is TGFβ1 (R&D systems) (UniProt P01137). Description: cell-based or functional assay.
UniProt P01137, sequence (P01137 279-390 limits assumed): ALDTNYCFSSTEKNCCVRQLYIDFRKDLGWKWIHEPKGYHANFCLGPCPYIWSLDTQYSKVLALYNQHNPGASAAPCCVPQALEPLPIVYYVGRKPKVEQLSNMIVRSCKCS

Regarding “recombinant IL-15 (from UniProt P40933 49-162) (ligand)”, the EC50, 32Dβ cell proliferation (WST1, absorbance at 450 nM) in experiment [1] was found to be 0.0106 nM. The substance “TGFR-Fc (R&D Systems) (from UniProt P37173 24-159) (Fc fusion)” showed an IC50, inhibition of TGFβ1 activity in HEK-Blue TGFβ cells (QUANTI-Blue OD 620-655 nM) with TGFβ1 (R&D systems) of 0.461 nM.
